Data published in the supplement of paper PMC7877785.
± gives the uncertainty stated by the source.

Assay: self-splicing fitness, log relative to wild type (ln ratio); higher = more splicing; Tetrahymena group I intron in knt gene, E. coli kanamycin selection, DiMSum; sequences stand for … in CUCUCU…GGAGGGAAAAGUUAUCAGGCAUGCACCUGGUAGCUAGUCUUUAAACCAAUAGAUUGCAUCGGUUUAAAAGGCAAGACCGUCAAAUUGCGGGAAAGGGGUCAACAGCCGUUCAGUACCAAGUCUCAGGGGAAACUUUGAGAUGGCCUUGCAAAGGGUAUGGUAAUAAGCUGACGGACAUGGUCCUAACCACGCAGCCAAGUCCUAAGUCAACAGAUCUUCUGUUGAUAUGGAUGCAGUUCACAGACUAAAUGUCGGUCGGGGAAGAUGUAUUCUUCUCAUAAGAUAUAGUCGGACCUCUCCUUAAUGGGAGCUAGCGGAUGAAGUGAUGCAACACUGGAGCCGCUGGGAACUAAUUUGUAUGCGAAAGUAUAUUGAUUAGUUUUGGAGUACUCGUGGUCG
Procedure, shortened: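 Colonies from six replicate transformations of E. coli BL21(DE3) were pooled and amplicon-sequenced on an Illumina HiSeq 2500. The library placed an intron with all eight P1ex-region nucleotides randomised inside the knt kanamycin-resistance gene on pET-22b(+), and cells grew overnight at 37°C or 30°C on LB agar with or without 25 μg/mL kanamycin (plus 100 μg/mL carbenicillin, 50 μM IPTG, 0.2% rhamnose). Fitness is the DiMSum error-weighted combination of wild-type-normalised replicate fold changes, kanamycin versus none.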

Sequence | self-splicing fitness (ln) (30 °C) | self-splicing fitness (ln) (37 °C)
GCACAGCAAUAUUACGGCAC | -0.752 ± 0.061 | -0.122 ± 0.073
GCACAGCAAUAUUACGGCCU | -1.66 ± 0.11 | -0.461 ± 0.12
GCACAGCAAUAUUACGGGGA | -2.29 ± 0.11 | -1.5 ± 0.1
GCACAGCAAUAUUACGGGUC | -3.81 ± 0.17 | -1.62 ± 0.097
GCACAGCAAUAUUACGGUAG | -3.61 ± 0.15 | -1.98 ± 0.11
GCACAGCAAUAUUACGGUUC | -0.415 ± 0.055 | -0.0499 ± 0.073
GCACAGCAAUAUUACGUACU | -1.2 ± 0.069 | -1.2 ± 0.094
GCACAGCAAUAUUACGUCAA | -0.993 ± 0.079 | -0.565 ± 0.082
GCACAGCAAUAUUACGUCUC | -0.14 ± 0.056 | 0.38 ± 0.059
GCACAGCAAUAUUACGUGUU | -3.75 ± 0.089 | -2.07 ± 0.085
GCACAGCAAUAUUACGUUGC | -3.95 ± 0.17 | -2.57 ± 0.17
GCAGAGCAAUAUUACGAGAU | -2.04 ± 0.29 | -2.15 ± 0.39
GCAGAGCAAUAUUACGAGCU | -4.1 ± 0.42 | -1.17 ± 0.26
GCAGAGCAAUAUUACGAGUG | -4.02 ± 0.48 | -2.25 ± 0.26
GCAGAGCAAUAUUACGAUGU | -4.4 ± 0.34 | -2.42 ± 0.19
GCAGAGCAAUAUUACGCAAC | -1.53 ± 0.35 | -2.13 ± 0.43
GCAGAGCAAUAUUACGCAAU |  | -1.61 ± 0.28
GCAGAGCAAUAUUACGCGCA | -2.97 ± 0.24 | -1.61 ± 0.17
GCAGAGCAAUAUUACGGAGA |  | -2.09 ± 0.43
GCAGAGCAAUAUUACGGAUC | -2.59 ± 0.34 | -1.6 ± 0.29
GCAGAGCAAUAUUACGGCAU | -3.03 ± 0.17 | -0.473 ± 0.11
GCAGAGCAAUAUUACGGCUU | -1.92 ± 0.27 | -0.671 ± 0.21
GCAGAGCAAUAUUACGGUUG | -3.01 ± 0.34 | -2.87 ± 0.47
GCAGAGCAAUAUUACGUCAA | -2.73 ± 0.45 | 
GCAGAGCAAUAUUACGUGAG | -1.62 ± 0.08 | -1.65 ± 0.1

Sequence | self-splicing fitness (ln) (30 °C) | self-splicing fitness (ln) (37 °C)
GCAGAGCAAUAUUACGUGCU | -3.24 ± 0.15 | -2.73 ± 0.22
GCAGAGCAAUAUUACGUGUG | -2.07 ± 0.22 | -2.63 ± 0.25
GCAGAGCAAUAUUACGUUAG | -3.42 ± 0.26 | -1.61 ± 0.17
GCAUAGCAAUAUUACGACAU | -1.03 ± 0.013 | -0.295 ± 0.032
GCAUAGCAAUAUUACGACGG |  | -1.01 ± 0.41
GCAUAGCAAUAUUACGAGCC | -2.61 ± 0.2 | -2.49 ± 0.33
GCAUAGCAAUAUUACGAGGG | -3.43 ± 0.23 | -1.69 ± 0.17
GCAUAGCAAUAUUACGAUGA | -0.554 ± 0.079 | 0.0691 ± 0.07
GCAUAGCAAUAUUACGCAAG | -3.49 ± 0.41 | -2.31 ± 0.33
GCAUAGCAAUAUUACGCAGC |  | -1.68 ± 0.44
GCAUAGCAAUAUUACGCCAU | -4.39 ± 0.46 | -2.23 ± 0.28
GCAUAGCAAUAUUACGCCCU | -1.78 ± 0.35 | -0.121 ± 0.33
GCAUAGCAAUAUUACGCCUG | -1.22 ± 0.081 | -1.49 ± 0.1
GCAUAGCAAUAUUACGCGCC | -3.02 ± 0.49 | -1.93 ± 0.36
GCAUAGCAAUAUUACGCUGG |  | -2.15 ± 0.49
GCAUAGCAAUAUUACGGCAC | -1.15 ± 0.14 | -0.425 ± 0.15
GCAUAGCAAUAUUACGGGAU | -1.41 ± 0.085 | -0.646 ± 0.11
GCAUAGCAAUAUUACGGGCC |  | -1.97 ± 0.27
GCAUAGCAAUAUUACGGGGG | -2.53 ± 0.23 | -2.13 ± 0.23
GCAUAGCAAUAUUACGGUGC | -3.71 ± 0.46 | 
GCAUAGCAAUAUUACGGUUA | -1.34 ± 0.093 | -0.638 ± 0.084
GCAUAGCAAUAUUACGUAGA | -2.41 ± 0.16 | -0.999 ± 0.17
GCAUAGCAAUAUUACGUGUG | -3.17 ± 0.14 | -1.57 ± 0.12
GCAUAGCAAUAUUACGUUCG | -1.43 ± 0.08 | 0.166 ± 0.09
GCAUAGCAAUAUUACGUUGC | -3.65 ± 0.21 | -1.72 ± 0.21

Sequence | self-splicing fitness (ln) (30 °C) | self-splicing fitness (ln) (37 °C)
GCCAAGCAAUAUUACGACAC | -0.962 ± 0.06 | -0.0161 ± 0.08
GCCAAGCAAUAUUACGACAG | -3.63 ± 0.2 | -3.8 ± 0.39
GCCAAGCAAUAUUACGAGGU | -3.83 ± 0.18 | -2.74 ± 0.26
GCCAAGCAAUAUUACGCAUG | -4.41 ± 0.46 | -2.22 ± 0.3
GCCAAGCAAUAUUACGCCUU | -2.83 ± 0.13 | -1.26 ± 0.12
GCCAAGCAAUAUUACGCGGA | -1.1 ± 0.099 | -0.277 ± 0.11
GCCAAGCAAUAUUACGCGGU | -3.73 ± 0.2 | -3.25 ± 0.27
GCCAAGCAAUAUUACGCUGU | -2.26 ± 0.12 | -1.36 ± 0.13
GCCAAGCAAUAUUACGGACC | -3.32 ± 0.15 | -0.612 ± 0.13
GCCAAGCAAUAUUACGGCAC | -2.04 ± 0.12 | -0.268 ± 0.12
GCCAAGCAAUAUUACGGCAU | -3.55 ± 0.21 | -2.55 ± 0.19
GCCAAGCAAUAUUACGGCUC | -1.99 ± 0.071 | -0.526 ± 0.091
GCCAAGCAAUAUUACGGGAG | -3.55 ± 0.19 | -1.46 ± 0.13
GCCAAGCAAUAUUACGGGCG | -1.36 ± 0.09 | -0.322 ± 0.11
GCCAAGCAAUAUUACGUACC | -1.28 ± 0.1 | -0.683 ± 0.15
GCCAAGCAAUAUUACGUAGU | -0.579 ± 0.051 | -0.395 ± 0.06
GCCAAGCAAUAUUACGUAUC | -1.66 ± 0.066 | -0.646 ± 0.082
GCCAAGCAAUAUUACGUCAU | -2.96 ± 0.22 | -2.59 ± 0.18
GCCAAGCAAUAUUACGUCGG | -2.95 ± 0.18 | -2.28 ± 0.24
GCCCAGCAAUAUUACGAAGG | -3.32 ± 0.14 | -2.42 ± 0.21
GCCCAGCAAUAUUACGAAGU | -0.333 ± 0.054 | 0.22 ± 0.069
GCCCAGCAAUAUUACGACGU | 0.175 ± 0.053 | 0.441 ± 0.067
GCCCAGCAAUAUUACGACUC | -0.305 ± 0.059 | 0.916 ± 0.087
GCCCAGCAAUAUUACGAGAC | -2.15 ± 0.093 | -0.787 ± 0.085
GCCCAGCAAUAUUACGAGAG | -2.63 ± 0.096 | -1.42 ± 0.1

Sequence | self-splicing fitness (ln) (30 °C) | self-splicing fitness (ln) (37 °C)
GCCCAGCAAUAUUACGAGGA | -0.441 ± 0.075 | -0.147 ± 0.086
GCCCAGCAAUAUUACGAUAC | -2.24 ± 0.086 | -0.313 ± 0.094
GCCCAGCAAUAUUACGAUUU | -1.07 ± 0.076 | -0.735 ± 0.1
GCCCAGCAAUAUUACGCAAG | -2.79 ± 0.093 | -2.46 ± 0.14
GCCCAGCAAUAUUACGCAGU | -0.834 ± 0.049 | 0.141 ± 0.056
GCCCAGCAAUAUUACGCAUC | -0.67 ± 0.075 | -0.106 ± 0.092
GCCCAGCAAUAUUACGCCCC | -1.48 ± 0.15 | -0.245 ± 0.22
GCCCAGCAAUAUUACGCCUG | -3.5 ± 0.3 | -2.64 ± 0.26
GCCCAGCAAUAUUACGCGGA | -0.775 ± 0.098 | -0.201 ± 0.12
GCCCAGCAAUAUUACGCGUU | 0.0719 ± 0.046 | 0.222 ± 0.065
GCCCAGCAAUAUUACGGAUA | -0.88 ± 0.078 | 0.215 ± 0.089
GCCCAGCAAUAUUACGGCCG | -1.11 ± 0.28 | 
GCCCAGCAAUAUUACGGCCU | -2.68 ± 0.16 | -0.992 ± 0.13
GCCCAGCAAUAUUACGGGAC | -4.73 ± 0.31 | -2.48 ± 0.14
GCCCAGCAAUAUUACGUCAA | -2.62 ± 0.1 | -1.68 ± 0.097
GCCCAGCAAUAUUACGUGUC | -0.887 ± 0.053 | -0.349 ± 0.066
GCCCAGCAAUAUUACGUGUG | -2.21 ± 0.08 | -1.69 ± 0.081
GCCGAGCAAUAUUACGAACU | -2.13 ± 0.3 | -0.52 ± 0.42
GCCGAGCAAUAUUACGAAGU | -2.51 ± 0.35 | -1.14 ± 0.24
GCCGAGCAAUAUUACGAGAC | -2.93 ± 0.11 | -1.54 ± 0.1
GCCGAGCAAUAUUACGAGGC | -3.23 ± 0.35 | -2.3 ± 0.37
GCCGAGCAAUAUUACGAUAA | -2.07 ± 0.21 | -2.08 ± 0.26
GCCGAGCAAUAUUACGAUCU |  | -0.908 ± 0.4
